Assay results: paper PMC9574934, “Targeting the Phosphatidylserine-Immune Checkpoint with a Small-Molecule Maytansinoid Conjugate” (Journal of Medicinal Chemistry, 2022)

What was measured:
[1] = Single intravenous dose pharmacokinetic study; details: for loss of AUC: intact conjugate AUC relative to 40a; for AUC(0-24 hr) Conjugate: intact conjugate; for AUC(0-24 hr) Conjugate / CL / Vss / AUC(0-24 hr) Drug: male ICR mice; for AUC(0-24 hr) Conjugate / CL / Vss: 5 mg/kg intravenous; for CL / Vss: n = 3; for AUC(0-24 hr) Drug: 5 mg/kg intravenous of conjugate
Experimental: Six-week-old male ICR mice, from the Biolasco Taiwan, were divided into groups of three and dosed at 5 mg/kg intravenously. Blood samples were drawn from each animal at time points of 0.003, 0.083, 0.25, 0.5, 1, 2, 4, 6, 8, and 24 h and stored on ice (0–4 °C). With centrifugation (3000 rpm for 15 min at 4 °C in a Beckman Model Allegra 6R centrifuge), plasma was separated from the blood and stored in frozen conditions (−20 °C). […] The mice were sacrificed, and the blood samples of 0.5 mL each and tumor samples were collected at 0.5, 2, 6, 24, 72, and 168 h after administration. Each time point group included 4 mice. Mouse blood samples were collected in EDTA tubes and centrifuged at 13,000 rpm for 5 min at 4°C for plasma collection. Plasma and the harvested tumor samples were stored at −80°C until use. Fifty microliters of mouse plasma or the sample of tumor homogenated in ddH2O with dilution ratio of 1:3 (w/v) by MiniBeadbeater-16 (BioSpec Products Inc., OK, USA) was mixed with 100 μL of acetonitrile containing 250 ng/mL BPR0L187. The mixture was vortexed for 30 s and then centrifuged at 15000g for 20 min. The supernatant was transferred to a clean tube, and 15 μL of the supernatant was injected onto LC/MS/MS. Plasma samples were analyzed by liquid chromatography tandem mass spectrometry (LC/MS/MS). The chromatographic system Agilent 1200 series LC system and an Agilent ZORBAX Eclipse XDB-C8 column (5 μm, 3.0 × 150 mm) interfaced to an MDS Sciex API4000 tandem mass spectrometer equipped with an ESI in the positive scanning mode at 600 °C was used. Data acquisition was collected via multiple reactions monitoring (MRM). A gradient system was employed for the separation of analyte and IS. Mobile phase A was 10 mM ammonium acetate aqueous solution containing 0.1% formic acid. Mobile phase B was acetonitrile. The gradient profile was as follows: 0.0–1.1 min, 50% B; 1.2–3.7 min, 55%B–90%B; 3.8–5.0 min, 90%B–50%B. The flow rate was 1.5 mL/min. The autosampler was programmed to inject 15 μL of the sample every 5 min.

[2] = system: MIA PaCa-2 human xenografts; test: MIA PaCa-2 xenograft antitumor efficacy
Experimental: Cancer cells, suspending in phenol red free medium/DPBS, were mixed with Matrigel (356237, BD Biosciences, San Jose CA, USA) in a 1:1 ratio. Human pancreatic cancer MIA PaCa-2 (1 × 10^6 cells) or triple-negative breast cancer HCC1806 (1 × 10^6cells) cells were subcutaneously inoculated to left flanks of male nude mice 6 weeks old (Biolasco, Taiwan) or female nude mice 6 weeks old by using a 1 mL syringe (needle 24G × 1 in., 0.55 × 25 mm; TERUMO). Tumor dimensions were measured twice a week with an electronic caliper (FOW54-200-777, PRO-MAX, Newton, Massachusetts, USA), and the volume of the subcutaneously growing tumor in mm^3 was calculated by the following formula: volume = (length × width[2])/2. Conjugates were formulated 10% DMA/20% Cremophor EL/70% injectable solution of 5% dextrose (D5W) for treating MIA PaCa-2 and HCC1806 xenograft tumors. […] Body weight of the mice and tumor volume were measured twice weekly.

[3] = MIA PaCa-2 xenograft, 2 mg/kg intravenous (Figure S4)
[4] = 1 mg/kg intravenously twice weekly for two weeks (Figure 4)

| Structure (SMILES) | loss of AUC [1] | AUC(0-24 hr) Conjugate [1] | CL [1] | Vss [1] | AUC(0-24 hr) Drug ([1]; released payload 14) | antitumor activity [2, 3] | body weight change during treatment [2, 3] | antitumor efficacy [2, 4] | body weight change during treatment [2, 4] | AUC(0-24 hr) Drug ([1]; released payload 16) |
| --- | --- | --- | --- | --- | --- | --- | --- | --- | --- | --- |
| CCCCCC(=O)Nc1cccc(CN(Cc2cc(CN(Cc3ccccn3)Cc3cccc(NC(=O)CCCCC)n3)cc(OCCCCN(Cc3ccc(-c4ccccc4)cc3)C(=O)COCCOCCOCC(=O)NCc3ccc(CNC(=O)CCC(C)(C)SSCCC(=O)N(C)[C@@H](C)C(=O)O[C@H]4CC(=O)N(C)c5cc(cc(OC)c5Cl)C/C(C)=C/C=C\[C@@H](OC)[C@@]5(O)C[C@H](OC(=O)N5)[C@@H](C)[C@@H]5O[C@@]45C)cc3)c2)Cc2ccccn2)n1.O=[N+]([O-])[O-].O=[N+]([O-])[O-].O=[N+]([O-])[O-].O=[N+]([O-])[O-].[Zn+2].[Zn+2] [Compound 40b] | ~20% | 88387 ng·h/mL | 1.0 mL/min/kg | 0.2 L/kg | 91 ng·h/mL |  |  |  |  |  |
| COc1cc2cc(c1Cl)N(C)C(=O)C[C@H](OC(=O)[C@H](C)N(C)C(=O)CCSSCCC(=O)NCc1ccc(CNC(=O)COCCOCCOCC(=O)N(CCCCOc3cc(CN(Cc4ccccn4)Cc4ccccn4)cc(CN(Cc4ccccn4)Cc4ccccn4)c3)Cc3ccc(-c4ccccc4)cc3)cc1)[C@]1(C)O[C@H]1[C@H](C)[C@@H]1C[C@@](O)(NC(=O)O1)[C@H](OC)/C=C\C=C(/C)C2.O=[N+]([O-])[O-].O=[N+]([O-])[O-].O=[N+]([O-])[O-].O=[N+]([O-])[O-].[Zn+2].[Zn+2] [Compound 30] |  | 39025 ng·h/mL | 2.5 mL/min/kg | 0.5 L/kg | 242 ng·h/mL |  |  |  |  |  |
| CCCCCC(=O)Nc1cccc(CN(Cc2cc(CN(Cc3ccccn3)Cc3cccc(NC(=O)CCCCC)n3)cc(OCCCCNC(=O)CCSSCCC(=O)N(C)[C@@H](C)C(=O)O[C@H]3CC(=O)N(C)c4cc(cc(OC)c4Cl)C/C(C)=C/C=C\[C@@H](OC)[C@@]4(O)C[C@H](OC(=O)N4)[C@@H](C)[C@@H]4O[C@@]34C)c2)Cc2ccccn2)n1.O=[N+]([O-])[O-].O=[N+]([O-])[O-].O=[N+]([O-])[O-].O=[N+]([O-])[O-].[Zn+2].[Zn+2] [Compound 33, (1S,2R,3S,5S,6S,16E,18Z,20R,21S)-11-Chloro-21-hydroxy-12,20-dimethoxy-2,5,9,16-tetramethyl-8,23-dioxo-4,24-dioxa-9,22-diazatetracyclo[19.3.1.1.^10,140^3,5]hexacosa-10(26),11,13,16,18-pentaen-6-yl (2S)-2-[{3-[(3-{[4-(3,5-bis{[{[6-(Hexanoylamino)pyridin-2-yl]methyl}(pyridin-2-ylmethyl)amino]methyl}phenoxy)butyl]amino}-3-oxopropyl)disulfanyl]propanoyl}(methyl)amino]propanoate·2[Zn(NO3)2]] |  | 14379 ng·h/mL | 6.8 mL/min/kg | 0.5 L/kg | 270 ng·h/mL | exhibited antitumor activities | significant body weight loss |  |  |  |
| CCCCCC(=O)Nc1cccc(CN(Cc2cc(CN(Cc3ccccn3)Cc3cccc(NC(=O)CCCCC)n3)cc(OCCCCNC(=O)COCCOCCOCC(=O)NCc3ccc(CNC(=O)CCSSCCC(=O)N(C)[C@@H](C)C(=O)O[C@H]4CC(=O)N(C)c5cc(cc(OC)c5Cl)C/C(C)=C/C=C\[C@@H](OC)[C@@]5(O)C[C@H](OC(=O)N5)[C@@H](C)[C@@H]5O[C@@]45C)cc3)c2)Cc2ccccn2)n1.O=[N+]([O-])[O-].O=[N+]([O-])[O-].O=[N+]([O-])[O-].O=[N+]([O-])[O-].[Zn+2].[Zn+2] [Compound 36] |  | 14244 ng·h/mL | 6.0 mL/min/kg | 0.4 L/kg | 640 ng·h/mL |  |  | potent antitumor efficacies | without apparent body weight loss |  |
| COc1cc2cc(c1Cl)N(C)C(=O)CC(OC(=O)C(C)N(C)C(=O)CCSSCCC(=O)NCCCCOc1cc(CN(Cc3ccccn3)Cc3ccccn3)cc(CN(Cc3ccccn3)Cc3ccccn3)c1)C1(C)OC1C(C)C1CC(O)(NC(=O)O1)C(OC)C=CC=C(C)C2.O=[N+]([O-])[O-].O=[N+]([O-])[O-].O=[N+]([O-])[O-].O=[N+]([O-])[O-].[Zn+2].[Zn+2] [Compound 27a, (1S,2R,3S,5S,6S,16E,18Z,20R,21S)-11-Chloro-21-hydroxy-12,20-dimethoxy-2,5,9,16-tetramethyl-8,23-dioxo-4,24-dioxa-9,22-diazatetracyclo[19.3.1.1.^10,140^3,5]hexacosa-10(26),11,13,16,18-pentaen-6-yl (2S)-2-[{3-[(3-{[4-(3,5-bis{[bis(Pyridin-2-ylmethyl)amino]methyl}phenoxy)butyl]amino}-3-oxopropyl)disulfanyl]propanoyl}(methyl)amino]propanoate·2[Zn(NO3)2]] |  | 7051 ng·h/mL | 11.5 mL/min/kg | 2.6 L/kg | 462 ng·h/mL | exhibited antitumor activities | significant body weight loss |  |  |  |
| COc1cc2cc(c1Cl)N(C)C(=O)C[C@H](OC(=O)[C@H](C)N(C)C(=O)CCSSc1ccc(C(=O)NCCCCOc3cc(CN(Cc4ccccn4)Cc4ccccn4)cc(CN(Cc4ccccn4)Cc4ccccn4)c3)cc1)[C@]1(C)O[C@H]1[C@H](C)[C@@H]1C[C@@](O)(NC(=O)O1)[C@H](OC)/C=C\C=C(/C)C2.O=[N+]([O-])[O-].O=[N+]([O-])[O-].O=[N+]([O-])[O-].O=[N+]([O-])[O-].[Zn+2].[Zn+2] [Compound 27b, (1S,2R,3S,5S,6S,16E,18Z,20R,21S)-11-Chloro-21-hydroxy-12,20-dimethoxy-2,5,9,16-tetramethyl-8,23-dioxo-4,24-dioxa-9,22-diazatetracyclo[19.3.1.1.^10,140^3,5]hexacosa-10(26),11,13,16,18-pentaen-6-yl (2S)-2-[{3-[(4-{[4-(3,5-bis{[bis(Pyridin-2-ylmethyl)amino]methyl}phenoxy)butyl]carbamoyl}phenyl)disulfanyl]propanoyl}(methyl)amino]propanoate·2[Zn(NO3)2]] |  | 318 ng·h/mL | 294 mL/min/kg | 83 L/kg | 216 ng·h/mL | exhibited antitumor activities | significant body weight loss |  |  |  |
| CCCCCC(=O)Nc1cccc(CN(Cc2cc(CN(Cc3ccccn3)Cc3cccc(NC(=O)CCCCC)n3)cc(OCCCCN(Cc3ccc(C(=O)NCCOCCOCCNC(=O)CCSSC(C)(C)CCC(=O)N(C)C(C)C(=O)OC4CC(=O)N(C)c5cc(cc(OC)c5Cl)CC(C)=CC=CC(OC)C5(O)CC(OC(=O)N5)C(C)C5OC45C)cc3)C(=O)C3(c4ccc(Cl)cc4)CCCCC3)c2)Cc2ccccn2)n1.O=[N+]([O-])[O-].O=[N+]([O-])[O-].O=[N+]([O-])[O-].O=[N+]([O-])[O-].[Zn+2].[Zn+2] (centres unmarked) [Compound 43] | ~20% | 84916 ng·h/mL | 1.0 mL/min/kg | 0.2 L/kg |  |  |  |  |  | 48 ng·h/mL |
